Reference: the supplement of paper PMC6755084

B1: F1*; the commonest letter at each place (parent)
chain: GAGACCGCAACTGAAAAGTTGTTATCACTTGTCGTAAGACACTTTGGATGGGTTGAAGTTCTGCACGTAGAAGCAAAAGGC

Variants of: B1
Assay: fraction ligated after 30 min (ligated reads / total reads); higher = more ligase activity
Details: with F1*sub RNA substrate (template-directed ligation), 42 °C
Summary of the method: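 Templates from an oligo pool were PCR-amplified, transcribed with T7 and gel-purified to give the ribozyme variants. Ligated and unligated products were separated on gel, reverse transcribed using barcoded primers, and read on a MiSeq. A quality filter of ≥20 was applied to core bases. Fraction ligated was taken as ligated reads as a share of all reads per variant.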

First: GAGACCGCAACTGAAAAGTTGTTATCACTAGTCGTAAGACAATTTGGATGGGTTGAAGTTCTGCACGTAGAAGCAAAAGGC [T30A C42A]
Second: GAGACCGCAACTGAAAAGTTGTTAACACTTGTCGTAAGACACTTTGGTTGGGTTGAAGTTCTGCACGTAGAAGCAAAAGGC [T25A A48T]
The fraction ligated of the first is lower: 0.815 for the first, 0.822 for the second.

Compared with GAGACCGCAACTGAAAAGTTGTTATCACTTGTCGAAAGGCACTTTGGATGGGTTGAAGTTCTGCACGTAGAAGCAAAAGGC [T35A A39G], GAGACCGCAACTGAAAAGTTGTTAGCACTTGTCGCAAGACACTTTGGATGGGTTGAAGTTCTGCACGTAGAAGCAAAAGGC [T25G T35C] is lower in fraction ligated: 0.851 for the first, 0.785 for the second.

Compared with GAGACCGCAACTGAAAAGTTGTTCTCACTTGTCGTGAGACACTTTGGATGGGTTGAAGTTCTGCACGTAGAAGCAAAAGGC [A24C A36G], GAGACCGCAACTGAAAAGTTGTGATCACTTGTCGTAAGACACTTTGGATGGGTTGAAGTTCTGCACGTAGAAGCAAAAGGC [T23G] is higher in fraction ligated: 0.0223 for the first, 0.855 for the second.

Going from GAGACCGCAACTGAAAAGTTGTTATCACTTGTCGTAAAACACTTTGGATGGGTTTAAGTTCTGCACGTAGAAGCAAAAGGC [G38A G55T] to GAGACCGCAACTGAAAAGTTGTTATCACCTGTCGTAAGACACTTTGGATGGGTTCAAGTTCTGCACGTAGAAGCAAAAGGC [T29C G55C], the fraction ligated falls from 0.811 to 0.638.

First: GAGACCGCAACTGAAAAGTTGTTATCACTTGCCGTAAGACACTTTGAATGGGTTGAAGTTCTGCACGTAGAAGCAAAAGGC [T32C G47A]
Second: GAGACCGCAACTGAAAAGTTGTTAACACTTGTCGTAAGACACTTTGGATGGGTTGATGTTCTGCACGTAGAAGCAAAAGGC [T25A A57T]
The fraction ligated of the first is higher: 0.669 for the first, 0.252 for the second.

Compared with GAGACCGCAACTGAAAAGTTGTTATCGCTTGTCGTAAGACACTTTGGATGGGTTGAGGTTCTGCACGTAGAAGCAAAAGGC [A27G A57G], GAGACCGCAACTGAAAAGTTGTGACCACTTGTCGTAAGACACTTTGGATGGGTTGAAGTTCTGCACGTAGAAGCAAAAGGC [T23G T25C] is lower in fraction ligated: 0.819 for the first, 0.781 for the second.

Compared with GAGACCGCAACTGAAAAGTTGTTCTCACTTGTCGTAAGACACTTTGGATGGGTTGATGTTCTGCACGTAGAAGCAAAAGGC [A24C A57T], GAGACCGCAACTGAAAAGTTGTTATAACATGTCGTAAGACACTTTGGATGGGTTGAAGTTCTGCACGTAGAAGCAAAAGGC [C26A T29A] is higher in fraction ligated: 0.55 for the first, 0.786 for the second.

Going from GAGACCGCAACTGAAAAGTTGTTATCACTTGTCGGAAGACAGTTTGGATGGGTTGAAGTTCTGCACGTAGAAGCAAAAGGC [T35G C42G] to GAGACCGCAACTGAAAAGTTGTTATCACTTGTCTTAAGACACATTGGATGGGTTGAAGTTCTGCACGTAGAAGCAAAAGGC [G34T T43A], the fraction ligated falls from 0.857 to 0.827.

Going from GAGACCGCAACTGAAAAGTTGTTATCACTTGTCGCAAGACACGTTGGATGGGTTGAAGTTCTGCACGTAGAAGCAAAAGGC [T35C T43G] to GAGACCGCAACTGAAAAGTTGTTATCACTTGTCGTAAGACCCTTTGGATGGGTTGAGGTTCTGCACGTAGAAGCAAAAGGC [A41C A57G], the fraction ligated falls from 0.797 to 0.773.

Compared with GAGACCGCAACTGAAAAGTTGTTATCACTTGTGGTAAGACACTTTGGATGGGTTGCAGTTCTGCACGTAGAAGCAAAAGGC [C33G A56C], GAGACCGCAACTGAAAAGTTGTTATCACTTGTGTTAAGACACTTTGGATGGGTTGAAGTTCTGCACGTAGAAGCAAAAGGC [C33G G34T] is higher in fraction ligated: 0.837 for the first, 0.856 for the second.

Compared with GAGACCGCAACTGAAAAGTTGTTATCACATGTCGTAAGACACTTTGGATCGGTTGAAGTTCTGCACGTAGAAGCAAAAGGC [T29A G50C], GAGACCGCAACTGAAAAGTTGTTATCACTTGGCGTAAGACACGTTGGATGGGTTGAAGTTCTGCACGTAGAAGCAAAAGGC [T32G T43G] is higher in fraction ligated: 0.195 for the first, 0.792 for the second.

First: GAGACCGCAACTGAAAAGTTGTTATCAGTTGTCGTAAGACACTTTTGATGGGTTGAAGTTCTGCACGTAGAAGCAAAAGGC [C28G G46T]
Second: GAGACCGCAACTGAAAAGTTGTTAGCACTTGTCGTAAGACACTTCGGATGGGTTGAAGTTCTGCACGTAGAAGCAAAAGGC [T25G T45C]
The fraction ligated of the first is higher: 0.771 for the first, 0.0153 for the second.

Going from GAGACCGCAACTGAAAAGTTGTTATCACTTGTGGTGAGACACTTTGGATGGGTTGAAGTTCTGCACGTAGAAGCAAAAGGC [C33G A36G] to GAGACCGCAACTGAAAAGTTGTTATCACTTGTCGTAAGACACTTTTGACGGGTTGAAGTTCTGCACGTAGAAGCAAAAGGC [G46T T49C], the fraction ligated falls from 0.821 to 0.148.

Compared with GAGACCGCAACTGAAAAGTTGTCATCAGTTGTCGTAAGACACTTTGGATGGGTTGAAGTTCTGCACGTAGAAGCAAAAGGC [T23C C28G], GAGACCGCAACTGAAAAGTTGTTCTCACTTGTCGTAAGACACTTTGGGTGGGTTGAAGTTCTGCACGTAGAAGCAAAAGGC [A24C A48G] is lower in fraction ligated: 0.732 for the first, 0.614 for the second.

First: GAGACCGCAACTGAAAAGTTGTTATCACTTGTCGTAACACACTTTGTATGGGTTGAAGTTCTGCACGTAGAAGCAAAAGGC [G38C G47T]
Second: GAGACCGCAACTGAAAAGTTGTTATCACTTGTCGTAAGACCCTTTGGATCGGTTGAAGTTCTGCACGTAGAAGCAAAAGGC [A41C G50C]
The fraction ligated of the first is lower: 0.045 for the first, 0.168 for the second.

Compared with GAGACCGCAACTGAAAAGTTGTTGTCACTCGTCGTAAGACACTTTGGATGGGTTGAAGTTCTGCACGTAGAAGCAAAAGGC [A24G T30C], GAGACCGCAACTGAAAAGTTGTTATCACTTGTCGTAAGACACGTTGGTTGGGTTGAAGTTCTGCACGTAGAAGCAAAAGGC [T43G A48T] is lower in fraction ligated: 0.693 for the first, 0.668 for the second.

Going from GAGACCGCAACTGAAAAGTTGTTATCACTTGTCGCAAGACACTTTGGATGGGTTGCAGTTCTGCACGTAGAAGCAAAAGGC [T35C A56C] to GAGACCGCAACTGAAAAGTTGTTATCACTTGTCGTAAGACACTTTGGATGGGTTTAGGTTCTGCACGTAGAAGCAAAAGGC [G55T A57G], the fraction ligated rises from 0.759 to 0.791.
